Experimental data from US20210155689A1 (SHANGHAI PHARMAEXPLORER, published 2021).

Key:
[1] = molecular target: T1, human LAG-3 on cells (HEK293-hLAG-3 stable cell line) (human, UniProt P18627 23-525); test: cell-based or functional assay
T1 sequence: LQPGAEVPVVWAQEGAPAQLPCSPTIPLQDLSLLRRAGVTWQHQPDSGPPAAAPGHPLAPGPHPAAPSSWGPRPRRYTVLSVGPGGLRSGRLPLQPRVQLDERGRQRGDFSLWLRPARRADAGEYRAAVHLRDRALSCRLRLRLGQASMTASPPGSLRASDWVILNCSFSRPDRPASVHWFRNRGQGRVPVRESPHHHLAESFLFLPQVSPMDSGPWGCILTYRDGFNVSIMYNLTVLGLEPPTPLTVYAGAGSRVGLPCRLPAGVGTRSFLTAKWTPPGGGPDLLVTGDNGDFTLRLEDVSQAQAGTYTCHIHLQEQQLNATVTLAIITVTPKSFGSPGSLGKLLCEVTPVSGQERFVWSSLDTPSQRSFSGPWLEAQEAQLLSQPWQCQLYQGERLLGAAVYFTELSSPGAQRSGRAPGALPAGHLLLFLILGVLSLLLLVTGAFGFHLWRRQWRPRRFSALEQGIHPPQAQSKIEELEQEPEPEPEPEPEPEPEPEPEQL

[2] = molecular target: T2, human LAG-3 ECD (antigen protein of the affinity test) (human, UniProt P18627 23-450); test: SPR, CM5 chip, antibody captured by anti-human Fc IgG, antigen in flow, 1:1 fit
T2 sequence: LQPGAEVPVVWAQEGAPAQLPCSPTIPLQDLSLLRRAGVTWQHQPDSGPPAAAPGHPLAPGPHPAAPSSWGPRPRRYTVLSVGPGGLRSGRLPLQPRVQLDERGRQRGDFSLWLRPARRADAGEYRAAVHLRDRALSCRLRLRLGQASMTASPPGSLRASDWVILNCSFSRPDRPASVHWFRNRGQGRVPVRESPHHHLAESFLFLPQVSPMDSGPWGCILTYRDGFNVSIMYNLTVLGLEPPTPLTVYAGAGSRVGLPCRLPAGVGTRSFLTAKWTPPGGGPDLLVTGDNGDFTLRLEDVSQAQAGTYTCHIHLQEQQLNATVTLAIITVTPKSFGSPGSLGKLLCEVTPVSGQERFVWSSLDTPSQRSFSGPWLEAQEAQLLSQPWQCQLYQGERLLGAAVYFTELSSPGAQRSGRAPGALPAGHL
Method: First, anti-human Fc IgG was immobilized on the surface of the CM5 chip to 6000-10000 RU by amino coupling method, with FC1 as the reference channel. The coupling process was as follows: a freshly prepared 1:1 mixture of 50 mM NHS and 200 mM EDC was activated for 7 minutes, then injected with 10-50 ug/ml anti-human Fc IgG diluted in 10 mM sodium acetate ph5.0 buffer. The remaining activated sites were blocked with 1M ethanolamine. Then, HBS-EP+ buffer was used to dilute the antibody to be tested to 5 ug/ml (adjustable according to the capture level) and the antibodies were captured on the chip at a flow rate of 10 ul/min to obtain a response value of about 100˜300 RU. Then the antigen protein was diluted to 100 nM (the highest concentration was tentatively 100 nM), and flew through the chip surface at a flow rate of 30 ul/min. If enough signal value was obtained, the antigen-protein was diluted by several concentration gradients, and flew through the chip surface respectively. At the end of each cycle, the chip surface was regenerated with 10 mM Glycine at pH 1.5. The kinetic rate constant needed to be subtracted from the blank control, and the data was fitted with the global fit analysis method 1:1 combination model. The dissociation equilibrium rate constant (KD) was calculated according to the following formula: KD=kd/ka.

B1: 105F1E10 mouse-human chimeric antibody (antibody, V domains shown)
VH: EVQLQQSGPELVKPGASVKMSCRASGYTFTDFKMHWMKQSHGKSLEWIGYIAPNNGGTAYNQKFRGKATLTVNESSNTAYMELRSLTSEDSAVYYCVDWDDVDYWGQGTTLTVSS
VL: DIKMTQSPSSMYASLGERVTITCKASQDINSYLSWFQQKSGKSPKTLIYRANRLVDGVPSRFSGSGSGQDYSLTISSLEYEDMGIYYCLQYVEFPLTFGAGTKLELK
notes: also called mAb009-105F1E10
IL-2 production, SEB-dependent PBMC stimulation test, 0.0032 ug/ml, N = 1 [1]: 2340 pg/mL
IL-2 production, SEB-dependent PBMC stimulation test, 0.0032 ug/ml, N = 2 [1]: 1840 pg/mL
IL-2 production, SEB-dependent PBMC stimulation test, 0.016 ug/ml, N = 1 [1]: 1720 pg/mL
IL-2 production, SEB-dependent PBMC stimulation test, 0.016 ug/ml, N = 2 [1]: 1520 pg/mL
IL-2 production, SEB-dependent PBMC stimulation test, 0.08 ug/ml, N = 1 [1]: 2130 pg/mL
IL-2 production, SEB-dependent PBMC stimulation test, 0.08 ug/ml, N = 2 [1]: 1770 pg/mL
IL-2 production, SEB-dependent PBMC stimulation test, 0.4 ug/ml, N = 1 [1]: 2550 pg/mL
IL-2 production, SEB-dependent PBMC stimulation test, 0.4 ug/ml, N = 2 [1]: 2570 pg/mL
IL-2 production, SEB-dependent PBMC stimulation test, 2 ug/ml, N = 1 [1]: 3970 pg/mL
IL-2 production, SEB-dependent PBMC stimulation test, 2 ug/ml, N = 2 [1]: 3660 pg/mL
IL-2 production, SEB-dependent PBMC stimulation test, 10 ug/ml, N = 1 [1]: 3740 pg/mL
IL-2 production, SEB-dependent PBMC stimulation test, 10 ug/ml, N = 2 [1]: 3650 pg/mL
Kd [2]: 2.51 nM
koff [2]: 9.66e-05 s⁻¹
kon [2]: 38500 M⁻¹ s⁻¹

B2: 405B8H3 mouse-human chimeric antibody (antibody, V domains shown)
VH: QVQLQQSGAELVRPGASVTLSCKASGYTFTDYEMHWVKQTPVHGLEWIGATDPETGNSAYNQKFKGKAIMTADKSSSTAYMELRSLTSEDSAVYYCISTGWNDWGQGTSLTVSS
VL: DIKMTQSPSSMYASLGERVTITCKASQDINSYLSWFQQKPGKSPKTLIYRADRLLDGVPSRFSGSGSGQDYSLTISSLEYGDMGIYYCLQYDEFPYTFGGGTKLEIK
notes: also called mAb103-405B8H3
IL-2 production, SEB-dependent PBMC stimulation test, 0.0032 ug/ml, N = 1 [1]: 2000 pg/mL
IL-2 production, SEB-dependent PBMC stimulation test, 0.0032 ug/ml, N = 2 [1]: 1600 pg/mL
IL-2 production, SEB-dependent PBMC stimulation test, 0.016 ug/ml, N = 1 [1]: 1880 pg/mL
IL-2 production, SEB-dependent PBMC stimulation test, 0.016 ug/ml, N = 2 [1]: 1770 pg/mL
IL-2 production, SEB-dependent PBMC stimulation test, 0.08 ug/ml, N = 1 [1]: 1800 pg/mL
IL-2 production, SEB-dependent PBMC stimulation test, 0.08 ug/ml, N = 2 [1]: 1840 pg/mL
IL-2 production, SEB-dependent PBMC stimulation test, 0.4 ug/ml, N = 1 [1]: 2790 pg/mL
IL-2 production, SEB-dependent PBMC stimulation test, 0.4 ug/ml, N = 2 [1]: 3240 pg/mL
IL-2 production, SEB-dependent PBMC stimulation test, 2 ug/ml, N = 1 [1]: 2700 pg/mL
IL-2 production, SEB-dependent PBMC stimulation test, 2 ug/ml, N = 2 [1]: 2850 pg/mL
IL-2 production, SEB-dependent PBMC stimulation test, 10 ug/ml, N = 1 [1]: 3280 pg/mL
IL-2 production, SEB-dependent PBMC stimulation test, 10 ug/ml, N = 2 [1]: 3160 pg/mL
Kd [2]: 1.96 nM
koff [2]: 0.000158 s⁻¹
kon [2]: 80400 M⁻¹ s⁻¹

B3: 409B11E12 mouse-human chimeric antibody (antibody, V domains shown)
VH: QVQLQQSGAELVRPGASVTLSCKASGYTFTDYEMHWVKQTTVHGLEWIGATDPETSYSAYNQKFKGKAILTADKSSSTAYMELRSLTSEDSAVYYCIATGWNDWGQGTSLTVSS
VL: DLKMTQSPSSMYASLGERVTITCKASQDINSYLSWFQQKPGKSPKTLIYRANRLLDGVPSRFSGSGSGQDYSLTISSLEYEDMGIYYCLQYDEFPYTFGGGTKLEIK
notes: also called mAb104-409B11E12
IL-2 production, SEB-dependent PBMC stimulation test, 0.0032 ug/ml, N = 1 [1]: 1340 pg/mL
IL-2 production, SEB-dependent PBMC stimulation test, 0.0032 ug/ml, N = 2 [1]: 1190 pg/mL
IL-2 production, SEB-dependent PBMC stimulation test, 0.016 ug/ml, N = 1 [1]: 1720 pg/mL
IL-2 production, SEB-dependent PBMC stimulation test, 0.016 ug/ml, N = 2 [1]: 1230 pg/mL
IL-2 production, SEB-dependent PBMC stimulation test, 0.08 ug/ml, N = 1 [1]: 1550 pg/mL
IL-2 production, SEB-dependent PBMC stimulation test, 0.08 ug/ml, N = 2 [1]: 1530 pg/mL
IL-2 production, SEB-dependent PBMC stimulation test, 0.4 ug/ml, N = 1 [1]: 2820 pg/mL
IL-2 production, SEB-dependent PBMC stimulation test, 0.4 ug/ml, N = 2 [1]: 1990 pg/mL
IL-2 production, SEB-dependent PBMC stimulation test, 2 ug/ml, N = 1 [1]: 2540 pg/mL
IL-2 production, SEB-dependent PBMC stimulation test, 2 ug/ml, N = 2 [1]: 1920 pg/mL
IL-2 production, SEB-dependent PBMC stimulation test, 10 ug/ml, N = 1 [1]: 3140 pg/mL
IL-2 production, SEB-dependent PBMC stimulation test, 10 ug/ml, N = 2 [1]: 3010 pg/mL

B4: 409D4E10 mouse-human chimeric antibody (antibody, V domains shown)
VH: QVQLQQSGAELVRPGASVTLSCKASGNTFTDYEMHWVKQTPVHGLEWIGATDPETDNTAYNQKFKGKAILTTDKSSSTAYMELRSLTSEDSAVYYCITSGWNDWGQGTSLTVSS
VL: DIKMTQSPSSMYASLGERVTITCKASQDINSYLSWFQQKPGKSPKTLIYRANRLLDGVPSRFSGSGSGQDYSLTISSLEYEDMGIYYCLQYNEFPYTFGGGTKLEIK
notes: also called mAb112-409D4E10
IL-2 production, SEB-dependent PBMC stimulation test, 0.0032 ug/ml, N = 1 [1]: 1660 pg/mL
IL-2 production, SEB-dependent PBMC stimulation test, 0.0032 ug/ml, N = 2 [1]: 1240 pg/mL
IL-2 production, SEB-dependent PBMC stimulation test, 0.016 ug/ml, N = 1 [1]: 1250 pg/mL
IL-2 production, SEB-dependent PBMC stimulation test, 0.016 ug/ml, N = 2 [1]: 1450 pg/mL
IL-2 production, SEB-dependent PBMC stimulation test, 0.08 ug/ml, N = 1 [1]: 1630 pg/mL
IL-2 production, SEB-dependent PBMC stimulation test, 0.08 ug/ml, N = 2 [1]: 1420 pg/mL
IL-2 production, SEB-dependent PBMC stimulation test, 0.4 ug/ml, N = 1 [1]: 2170 pg/mL
IL-2 production, SEB-dependent PBMC stimulation test, 0.4 ug/ml, N = 2 [1]: 2160 pg/mL
IL-2 production, SEB-dependent PBMC stimulation test, 2 ug/ml, N = 1 [1]: 2770 pg/mL
IL-2 production, SEB-dependent PBMC stimulation test, 2 ug/ml, N = 2 [1]: 1940 pg/mL
IL-2 production, SEB-dependent PBMC stimulation test, 10 ug/ml, N = 1 [1]: 2740 pg/mL
IL-2 production, SEB-dependent PBMC stimulation test, 10 ug/ml, N = 2 [1]: 2100 pg/mL

B5: 556F6B8 mouse-human chimeric antibody (antibody, V domains shown)
VH: RVQLKQSGPGLVQPSQSLSITCTVSGFSLIKYGVHWVRQSPGEGLEWLGVIWRGGITDYNAAFMSRLSITKDNSKSQVFFKMNSLQADDTAIYYCAKWDGPLAMDYWGQGTSVTVSS
VL: DIVMTQSHKFLSTSVGDRVSITCKASQDVGTTVAWYQQKPGQSPKLLIYWASTRHTGVPDRFTGSGSGTDFTLTISNVQSEDLADYFCQQYSSYPYTFGGGTKLEIK
notes: also called mAb123-556F6B8; 556F8B8
IL-2 production, SEB-dependent PBMC stimulation test, 0.0032 ug/ml, N = 1 [1]: 1780 pg/mL
IL-2 production, SEB-dependent PBMC stimulation test, 0.0032 ug/ml, N = 2 [1]: 1910 pg/mL
IL-2 production, SEB-dependent PBMC stimulation test, 0.016 ug/ml, N = 1 [1]: 1430 pg/mL
IL-2 production, SEB-dependent PBMC stimulation test, 0.016 ug/ml, N = 2 [1]: 2010 pg/mL
IL-2 production, SEB-dependent PBMC stimulation test, 0.08 ug/ml, N = 1 [1]: 1780 pg/mL
IL-2 production, SEB-dependent PBMC stimulation test, 0.08 ug/ml, N = 2 [1]: 1980 pg/mL
IL-2 production, SEB-dependent PBMC stimulation test, 0.4 ug/ml, N = 1 [1]: 2570 pg/mL
IL-2 production, SEB-dependent PBMC stimulation test, 0.4 ug/ml, N = 2 [1]: 2810 pg/mL
IL-2 production, SEB-dependent PBMC stimulation test, 2 ug/ml, N = 1 [1]: 3800 pg/mL
IL-2 production, SEB-dependent PBMC stimulation test, 2 ug/ml, N = 2 [1]: 4010 pg/mL
IL-2 production, SEB-dependent PBMC stimulation test, 10 ug/ml, N = 1 [1]: 2610 pg/mL
IL-2 production, SEB-dependent PBMC stimulation test, 10 ug/ml, N = 2 [1]: 3260 pg/mL
Kd [2]: 3.77 nM
koff [2]: 0.000459 s⁻¹
kon [2]: 122000 M⁻¹ s⁻¹
